Experimental data from patent US20190092871A1 (VIB VZW, published 2019).
Residue numbers refer to the chain shown, from its start.

T1: human CD20 (human, UniProt P11836 1-297)
T1 construct: The forward primer starts at codon 2; also called hCD20; CHO-K1-hCD20
T1 sequence: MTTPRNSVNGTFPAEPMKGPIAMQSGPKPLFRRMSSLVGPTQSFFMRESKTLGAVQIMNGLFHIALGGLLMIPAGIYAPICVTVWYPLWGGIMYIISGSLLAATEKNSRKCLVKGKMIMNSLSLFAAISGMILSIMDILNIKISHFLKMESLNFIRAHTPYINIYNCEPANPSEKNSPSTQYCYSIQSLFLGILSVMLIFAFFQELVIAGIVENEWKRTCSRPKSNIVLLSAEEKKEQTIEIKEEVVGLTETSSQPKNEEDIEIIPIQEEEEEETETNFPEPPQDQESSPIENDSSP

T2: mouse CD20 (mouse, UniProt P19437 1-291)
T2 construct: whole, on cells; also called mCD20; CHO-K1-mCD20
T2 sequence (looked up): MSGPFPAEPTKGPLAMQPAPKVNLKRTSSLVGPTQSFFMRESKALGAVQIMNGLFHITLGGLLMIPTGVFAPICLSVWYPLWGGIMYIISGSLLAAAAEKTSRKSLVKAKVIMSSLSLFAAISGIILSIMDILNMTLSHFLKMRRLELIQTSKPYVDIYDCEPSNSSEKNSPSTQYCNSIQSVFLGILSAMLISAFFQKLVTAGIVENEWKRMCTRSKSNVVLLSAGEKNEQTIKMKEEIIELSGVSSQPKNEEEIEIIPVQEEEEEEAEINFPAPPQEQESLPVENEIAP

B1: 2HCD17 (VHH)
VHH: QVQLQESGGGLVQAGGSLRLSCAASGRTVGSYSMGWFRQAPGKEREFVAAVIWSGASPYYADSVKGRFTISRDNAKNTVYLQMNSLKPEDTAVYYCAANPTYSGGWHAEYWGQGTQVTVSS
notes: Whole entry = VHH-AAA-HA-His6 (pMECS construct)
B2: 2HCD25 (VHH)
VHH: QVQLQESGGGLAQAGGSLRLSCAASGRTFSMGWFRQAPGKEREFVAAITYSGGSPYYASSVRGRFTISRDNAKNTVYLQMNSLKPEDTAVYYCAANPTYGSDWNAENWGQGTQVTVSS
notes: Whole entry = VHH-AAA-HA-His6 (pMECS construct); also called hCD20Nb
B3: 2HCD78 (VHH)
VHH: B2 VHH with A12V, A14P
notes: as for B1
B4: 2HCD73 (VHH)
VHH: QVQLQESGGGLVQAGGSLRLSCAASGRTFSRQSMGWFRQAPGEEREFVAVITWSGGSPYYADSVRGRFTISRDNAKNTVYLQMNSLKPEDTAVYYCAAPVSYGSQWLADYWGQGTQVTVSS
notes: as for B1
B5: 2HCD81 (VHH)
VHH: B4 VHH with R31S, Q32Y, S33N, E43K, T52S, R65K, Q105S
notes: as for B1
B6: R3MCD137 (VHH)
VHH: QVQLQESGGGSVQAGGSLRLSCAASGSTFSIKAMGWYRQAPGKQRELVAAFISGRGSTKYADSVKGRFAISRDNAKNTMYLQMDSLEPEDTAVYYCYIVLPTGGGSAMDYWGEGTQVTVSS
notes: as for B1
B7: R3MCD22 (VHH)
VHH: B6 VHH with S11V, E46D, A50G, T58A, E87K, P101T, E113Q
notes: as for B1
B8: 2HCD40 (VHH)
VHH: B1 VHH with I52T
notes: as for B1
B9: 2HCD59 (VHH)
VHH: B1 VHH with L11S, V12E, A14P, I52T, W53R
notes: as for B1
B10: 2HCD68 (VHH)
VHH: B1 VHH with A14P, G26R, R27F, V29L, G30D, S31Y, S33A, M34I, I52T
notes: as for B1
B11: 2HCD88 (VHH)
VHH: B1 VHH with G16D, I52T
notes: as for B1
B12: 2HCD43 (VHH)
VHH: QVQLQESGGGLVQPGGSLRLSCTASGFTLDYYAIGWLRQAPGKEREGVSCISSSGGSTNYADSVKGRFTISRDNAKNTVYLLMNSLKPEDTAVYYCAAERTWVSNYYCSGDGDGYDYDYWGQGTQVTVSS
notes: as for B1

Each binder was assayed against T1, human CD20 (assay: FACS, 5 ug/ml VHH on CHO-K1 cells stably expressing human CD20, FITC anti-his detection).
Protocol: (§1) To determine the binding activities of the VHHs specific for human or mouse CD20, FACS analysis was carried out. Specifically, CHO-K1 cells and CHO-K1 cells stably expressing human or mouse CD20 were incubated with 5 μg/ml of the VHHs produced in accordance with the application. A monoclonal FITC labelled anti-his antibody (Genscript #A01620) was applied as secondary stain. FACS analysis was done on a FacsCalibur flow cytometer (Becton Dickinson).

Row | Binder | binding result
1 | B1 | binds
2 | B2 | binds
3 | B3 | binds
4 | B4 | binds
5 | B5 | binds

What follows are binders tested against T2, mouse CD20 (assay: FACS, 5 ug/ml VHH on CHO-K1 cells stably expressing mouse CD20, FITC anti-his detection).
Protocol: as §1

Row | Binder | binding result
6 | B6 | binds
7 | B7 | binds

The binders below were run against T1, human CD20 (assay: cell ELISA, crude periplasmic extract, CHO-K1 expressing human CD20 against parental CHO-K1).

Row | Binder | binding result
8 | B8 | binds
9 | B9 | binds
10 | B10 | binds
11 | B11 | binds
12 | B12 | binds
